Assay results published in patent US20040072152A1.
Where “and” joins values, the source holds several entries; their conditions need not be identical. Identical values can stand only once.

Key:
Details in all cases: scale: ratio of % tetramer-binding CD8alpha-high cells, bound/unbound fraction
[1] = target: E-selectin expressed on CHO-E cells (UniProt P16581); experiment: un-manipulated PBMC, one hour rotary co-incubation with CHO-E monolayer, flow cytometry with tetramer B7-RPR
[2] = target: E-selectin expressed on CHO-E cells (UniProt P16581); experiment: peptide-stimulated PBMC, one hour rotary co-incubation with CHO-E monolayer, flow cytometry with tetramer B7-RPR
[3] = target: E-selectin expressed on CHO-E cells (UniProt P16581); experiment: peptide-stimulated PBMC, one hour rotary co-incubation with CHO-E monolayer, flow cytometry with tetramer B7-APA

- CHO-E-selectin enrichment [1]: 13.2 and 10.1 and 5.6
- CHO-E-selectin enrichment [2]: 9.5
- CHO-E-selectin enrichment [3]: 8.3
Substance: CLA-associated E-selectin ligand on HSV-2-specific CD8+ T-cells
